# The Immune Epitope Database (IEDB)
# Key:
# HLA-B*44:03 = assay: IEDB peptide-MHC binding, purified MHC/competitive/radioactivity; filed as Kd, often an IC50 or EC50 that approximates it; ≥ and ≤ were set here for values at or beyond the usual limits of such assays
# HLA-B*08:01 = assay: as above
# HLA-B*35:01 = assay: as above
# HLA-B*53:01 = assay: as above
# HLA-A*29:02 = assay: as above; settings: source organism: Mammarenavirus machupoense
# HLA-A*23:01 = assay: as above; settings: source organism: Mammarenavirus machupoense
# HLA-A*24:02 = assay: as above
# HLA-A*30:02 = assay: as above
# HLA-A*01:01 = assay: as above; settings: source organism: Dengue virus 2 Jamaica/1409/1983
# HLA-A*26:01 = assay: as above; settings: source organism: Dengue virus 2 Jamaica/1409/1983
# HLA-B*40:01 = assay: as above
# HLA-A*02:01 [1] = assay: IEDB peptide-MHC binding, purified MHC/competitive/fluorescence; ≥ and ≤ were set here for values at or beyond the usual limits of such assays
# HLA-B*51:01 = assay: IEDB peptide-MHC binding, purified MHC/competitive/radioactivity; filed as Kd, often an IC50 or EC50 that approximates it; ≥ and ≤ were set here for values at or beyond the usual limits of such assays
# HLA-A*02:06 = assay: as above
# HLA-A*68:02 = assay: as above
# HLA-B*44:02 = assay: as above
# HLA-A*02:03 = assay: as above
# HLA-A*02:02 = assay: as above; settings: source organism: Homo sapiens
# HLA-B*57:01 = assay: IEDB peptide-MHC binding, purified MHC/direct/fluorescence; filed as Kd, often an IC50 or EC50 that approximates it; ≥ and ≤ were set here for values at or beyond the usual limits of such assays; settings: source organism: Salmonella enterica
# HLA-B*58:01 = assay: as above; settings: source organism: Salmonella enterica
# HLA-A*02:01 [2] = assay: IEDB peptide-MHC binding, purified MHC/competitive/fluorescence; filed as Kd, often an IC50 or EC50 that approximates it; ≥ and ≤ were set here for values at or beyond the usual limits of such assays; settings: source organism: Hepatitis C virus subtype 1b
# [3] = source organism: Dengue virus 1 Brazil/97-11/1997
# [4] = source organism: Vaccinia virus WR
# [5] = source organism: Dengue virus 2 Jamaica/1409/1983
# [6] = source organism: Dengue virus 3 Martinique/1243/1999
# [7] = source organism: Sudan ebolavirus
# [8] = source organism: Dengue virus 4 Philippines/H241/1956
# [9] = source organism: Zaire ebolavirus
# [10] = source organism: Dengue virus 3 Singapore/8120/1995
sequence,measurement,setting,value
QERGKSLLF,Kd,HLA-B*44:03; [3],117 nM
SAKRITESI,Kd,HLA-B*08:01; [4],119 nM
EPGQLKLNWF,Kd,HLA-B*35:01; [5],≥ 42000 nM
same,Kd,HLA-B*53:01; [5],593 nM
RFKTKGRYNL,Kd,HLA-A*29:02,104 nM
same,Kd,HLA-A*23:01,87.5 nM
same,Kd,HLA-A*24:02; source organism: Mammarenavirus machupoense,579 nM
VHQIFGSAY,Kd,HLA-A*30:02; [6],9950 nM
MSYSMCTGKF,Kd,HLA-A*30:02; [5],1100 nM
same,Kd,HLA-A*01:01,18000 nM
same,Kd,HLA-A*26:01,79.4 nM
LEFFLMVLLI,Kd,HLA-B*44:03; [3],9090 nM
same,Kd,HLA-B*40:01; [3],10100 nM
LVCGLRQLA,IC50,HLA-A*02:01 [1]; [7],7660 nM
MASVEPHWI,Kd,HLA-B*51:01; [3],1790 nM
same,Kd,HLA-B*53:01; [3],1400 nM
KLKKLEEEQI,Kd,HLA-A*02:06; source organism: Homo sapiens,≥ 59100 nM
same,Kd,HLA-A*68:02; source organism: Homo sapiens,≥ 60000 nM
LAIMAVFKM,Kd,HLA-B*35:01; [8],22.2 nM
RTTWALCESI,Kd,HLA-A*68:02; [3],139 nM
MHNQDGLIC,IC50,HLA-A*02:01 [1]; [9],2340 nM
FEKQLGQIM,Kd,HLA-B*44:02; [3],2550 nM
same,Kd,HLA-B*40:01; [3],558 nM
ALEAKIAQL,Kd,HLA-A*02:03; source organism: Homo sapiens,46.7 nM
same,Kd,HLA-A*02:06; source organism: Homo sapiens,1100 nM
same,Kd,HLA-A*02:02,14.8 nM
same,Kd,HLA-A*68:02; source organism: Homo sapiens,7300 nM
SRHQRLHDE,Kd,HLA-B*08:01; [4],453 nM
EEQTLTILI,Kd,HLA-B*44:02; [5],14 nM
same,Kd,HLA-B*44:03; [5],146 nM
STEGRRVGV,IC50,HLA-A*02:01 [1]; [7],≥ 210000 nM
KKILMNFHQ,IC50,HLA-A*02:01 [1]; [9],63400 nM
MAYMIGQTGI,Kd,HLA-B*51:01; [8],57.1 nM
LPEIEDEVF,Kd,HLA-B*35:01; [3],88.1 nM
same,Kd,HLA-B*53:01; [3],1240 nM
ALRPSTSRSL,Kd,HLA-A*68:02; source organism: Homo sapiens,≥ 60000 nM
RWGLLLALL,Kd,HLA-A*24:02; source organism: Homo sapiens,4.5 nM
AGPPKAENT,IC50,HLA-A*02:01 [1]; [9],66600 nM
TSMSFSCIAI,Kd,HLA-A*68:02; [6],1.23 nM
LYSACFWWL,Kd,HLA-A*24:02; source organism: Homo sapiens,28 nM
RSRCRLHHL,Kd,HLA-B*57:01,3540 nM
same,Kd,HLA-B*58:01,598 nM
ELREIFRRL,Kd,HLA-B*08:01; [4],26.5 nM
LRTTTVSGKL,Kd,HLA-B*08:01; [6],9540 nM
CESCVYNMM,Kd,HLA-B*44:02; [8],180 nM
same,Kd,HLA-B*40:01; [8],201 nM
SEIQLTDYG,Kd,HLA-B*44:03; [3],441 nM
VNREGKIVGL,Kd,HLA-B*08:01; [3],≥ 35600 nM
SCKVKIVPL,Kd,HLA-B*08:01; [4],1430 nM
SEKNETWKL,Kd,HLA-B*44:02; [3],153 nM
same,Kd,HLA-B*40:01; [3],113 nM
NVMKRINCF,Kd,HLA-B*08:01; [4],19.8 nM
DFLLRRWGG,IC50,HLA-A*02:01 [1]; [7],56400 nM
RNPAQEDDQY,Kd,HLA-A*30:02; [8],15900 nM
EELGDGLAM,Kd,HLA-B*44:03; [3],76.6 nM
same,Kd,HLA-B*40:01; [3],221 nM
TLEDDRERL,IC50,HLA-A*02:01 [1]; source organism: Variola virus,29900 nM
LATGPVLTLW,Kd,HLA-B*53:01; [8],44.8 nM
SLIPRLVDF,Kd,HLA-B*08:01; [4],12.7 nM
AEIQPQWIA,Kd,HLA-B*44:02; [8],26.4 nM
same,Kd,HLA-B*44:03; [8],1230 nM
TATLILAGV,Kd,HLA-A*68:02; [6],1.07 nM
DRRSFFKCF,Kd,HLA-B*08:01; source organism: Vaccinia virus Copenhagen,75.7 nM
EEYTDYMPSM,Kd,HLA-B*44:03; [5],116 nM
same,Kd,HLA-B*40:01; [5],833 nM
LAHAIGTSI,Kd,HLA-B*51:01; [3],157 nM
LAWIPYFGP,IC50,HLA-A*02:01 [1]; [9],17800 nM
IANQAAILM,Kd,HLA-B*35:01; [3],103 nM
LLVTHYAII,Kd,HLA-A*02:03; [10],39.2 nM
same,Kd,HLA-B*08:01; [10],667 nM
LETKGVERL,Kd,HLA-B*40:01; [6],21.7 nM
LLCPAGHAV,Kd,HLA-A*02:01 [2],12.4 nM
same,IC50,HLA-A*02:01 [1]; source organism: Hepacivirus hominis,35400 nM
QKQTQRSGVL,Kd,HLA-B*08:01; [6],5800 nM
VESWEEIPYL,Kd,HLA-B*40:01; source organism: Dengue virus 2 Peru/IQT2913/1996,52.8 nM
LENDMKFTV,Kd,HLA-B*40:01; source organism: Dengue virus 1 Singapore/S275/1990,124 nM
MFISLFMIL,Kd,HLA-B*08:01; [4],223 nM
SVYTTMFGGV,Kd,HLA-A*02:03; [8],8.23 nM
same,Kd,HLA-A*02:06; [8],1.96 nM
same,Kd,HLA-A*68:02; [8],9.63 nM
ALRSRIREL,Kd,HLA-B*08:01; [4],0.455 nM
LMKMKKKTWL,Kd,HLA-B*08:01; [8],24.1 nM
GEDAPCKIPF,Kd,HLA-B*44:02; [6],59.2 nM
